Where a chain is given by its changes, count along the chain named.

Six molecules from patent publication US20180009899A1 (CORVUS PHARMACEUTICALS, published 2018) can be followed below.

The labels stand for the following.
B1: CPX-006 (glycosylated) (antibody, human IgG1, kappa, N297Q, V domains shown)
VH: QVQLVQSGAEVEKPGASVKVSCKASGYTFTSYWITWVRQAPGQGLEWMGDIYPGSGNTNYNEKFKTRVTITADKSTSTAYMELSSLRSEDTAVYYCAKEGGLTTEDYALDYWGQGTLVTVSS
VL: EIVLTQSPATLSLSPGERATLSCRASKNVSTSGYSYMHWYQQKPGQAPRLLIYLASNLESGIPPRFSGSGYGTDFTLTINNIESEDAAYYFCQHSRELPFTFGQGTKVEIKR
modifications: N-linked glycosylation on CDR L1 (NXS motif at Kabat 27A-27C)
notes: Humanized anti-CD73 antibody with the CDRs of mouse 1E9; also called BAP094-hum07; glycosylated antibody
B2: CPX-008 (antibody, V domains shown)
VH: QVQLVQSGAEVEKPGASVKVSCKASGYTFTSYWITWVRQAPGQGLEWMGDIYPGSGNTNYNEKFKTRVTITADKSTSTAYMELSSLRSEDTAVYYCAKEGGLTTEDYALDYWGQGTLVTV
VL: EIVLTQSPATLSLSPGERATLSCRASKQVSTSGYSYMHWYQQKPGQAPRLLIYLASNLESGIPPRFSGSGYGTDFTLTINNIESEDAAYYFCQHSRELPFTFGQGTKVEIK
notes: also called aglycosylated antibody
B3: CPX-012 (antibody, V domains shown)
VH: B2 VH
VL: AIQLTQSPSSLSASVGDRVTITCRASKQVSTSGYSYMHWYQQKPGQAPRLLIYLASNLESGVPSRFSGSGSGTDFTFTISSLEAEDAATYYCQHSRELPFTFGQGTKVEIK
B4: CPX-011 (antibody, V domains shown)
VH: B2 VH
VL: B2 VL with Q28N, S30A
notes: A at Kabat 27C of CDR L1, made in the CPX-006 light chain
B5: CPX-009 (antibody, V domains shown)
VH: B2 VH
VL: B2 VL with Q28A
notes: A at Kabat 27A of CDR L1, made in the CPX-006 light chain
B6: CPX-014 (antibody, V domains shown)
VH: B2 VH
VL: B2 VL with Q28D
notes: D at Kabat 27A of CDR L1, made in the CPX-006 light chain

For the test, the target named is T1, Cellular CD73 on MDA-MB-231 human breast cancer cells (human, UniProt P21589 27-549).
T1 construct: whole, on cells; Endogenous CD73 on MDA-MB-231 cells; also called 5'-nucleotidase; ecto-5'-nucleotidase
T1 sequence (looked up): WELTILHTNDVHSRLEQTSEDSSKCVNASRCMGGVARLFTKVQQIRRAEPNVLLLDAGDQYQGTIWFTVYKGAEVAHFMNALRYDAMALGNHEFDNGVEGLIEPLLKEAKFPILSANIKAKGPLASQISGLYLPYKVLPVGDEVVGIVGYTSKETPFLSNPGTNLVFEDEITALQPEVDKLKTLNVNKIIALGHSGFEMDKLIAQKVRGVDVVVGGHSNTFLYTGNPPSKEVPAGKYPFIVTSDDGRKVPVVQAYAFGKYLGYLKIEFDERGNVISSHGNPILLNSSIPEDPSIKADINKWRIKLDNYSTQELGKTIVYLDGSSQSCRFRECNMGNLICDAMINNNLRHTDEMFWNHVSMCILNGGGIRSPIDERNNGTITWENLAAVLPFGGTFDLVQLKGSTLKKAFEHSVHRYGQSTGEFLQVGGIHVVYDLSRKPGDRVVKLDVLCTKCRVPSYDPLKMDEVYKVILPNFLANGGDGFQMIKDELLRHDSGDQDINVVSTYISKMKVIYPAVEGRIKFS
The experiment in a line: flow cytometry on MDA-MB-231 cells, PE anti-human secondary.
Turning to B1, the binding result is “binds”.

Regarding B2, the binding result is “binds”.

Consider B3, for which the binding result was “binds”.

B4: the binding result is recorded as “binds”.

Turning to B5, the binding result was “binds”.

Consider B6, for which the binding result is listed as “binds”.
